Laboratory results taken from the supplement of paper PMC9732359.
± gives the uncertainty stated by the source.

Assay: protein stability index of a GFP-peptide fusion (yeast GPS) (PSI 1-4); higher = more stable; sorted into four equal gates, so the index is relative within each strain
Summary of the method: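 Yeast carrying a pooled library were grown to mid-log phase in leucine-free medium. Each library plasmid expresses Cherry and has a tiled 17-residue yeast protein peptide fused downstream of GFP. Cells were sorted into four equal gates by GFP/Cherry ratio, and plasmids from each gate were PCR-amplified, Illumina-sequenced and assigned to strains by barcode. Summing, across gates, the read frequency times the gate number gave each peptide's protein stability index.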

Sequence | protein stability index (doa10∆) | protein stability index (pdr5∆) | protein stability index (san1∆) | protein stability index (ubr1∆)
PMNAPTPAMIPYPGSPM [DSN1] | 2.79 ± 0.044 | 2.76 ± 0.05 | 2.99 ± 0.042 | 3.01 ± 0.034
NNGLPECQVIAAEGLCK [YCG1] | 2.53 ± 0.12 | 3.47 ± 0.16 | 1.65 ± 0.15 | 2.72 ± 0.048
HPYLFEGAEPGPPYTTD [ISW2] | 3.04 ± 0.06 | 3.14 ± 0.066 | 3.07 ± 0.05 | 3.18 ± 0.053
RSNTGALMRCSFEETVE [RPO21] | 3 ± 0.074 | 3.02 ± 0.077 | 3.06 ± 0.061 | 3.01 ± 0.067
IDDFTTRLWGSVYYHKG [SNU114] | 3.06 ± 0.24 | 3.41 ± 0.17 | – | 3.31 ± 0.13
MIQTPRELLNPRYTYHT [YML031W/NDC1] | 2.95 ± 0.078 | 2.83 ± 0.081 | 2.98 ± 0.11 | 3.35 ± 0.14
PQEESVSPNISSASPSA [SIR3] | 2.99 ± 0.048 | 3.15 ± 0.046 | 3.01 ± 0.034 | 3.03 ± 0.028
TMLITGQRPDRATTYEK [SIN4] | 3.06 ± 0.11 | 3.09 ± 0.15 | 3.25 ± 0.07 | 3.22 ± 0.05
ISEFDSFTDILKSAIRD [RPN12] | 2.73 ± 0.12 | 3.15 ± 0.17 | 3.04 ± 0.11 | 2.42 ± 0.13
ALKRSYGIFGEGVEYSF [POP8] | 2.45 ± 0.092 | 2.71 ± 0.052 | 2.46 ± 0.097 | 2.86 ± 0.051
SRTATWLKNKFAEENIT [BRR2] | 1.69 ± 0.052 | 1.73 ± 0.037 | 2.23 ± 0.064 | 1.94 ± 0.053
GAQIVSKQIFTHPKDTF [ARP9] | 2.23 ± 0.069 | 1.51 ± 0.051 | 2.04 ± 0.067 | 1.68 ± 0.033
GLQGSGKTTSCTKLAVY [SRP54] | 2.47 ± 0.12 | 2.91 ± 0.077 | 1.97 ± 0.27 | 2.66 ± 0.089
AEMEADSLASELTLAEQ [SMC4] | – | – | 2.94 ± 0.15 | 3.39 ± 0.26
AKLPGHKSLIRSISWAP [YGL100W/SEH1] | 2.74 ± 0.07 | 2.3 ± 0.058 | 2.2 ± 0.11 | 2.54 ± 0.055
MTRILPQQSRYISFIKD [RPN2] | 2.16 ± 0.057 | 2.6 ± 0.057 | 1.87 ± 0.067 | 1.92 ± 0.053
PFPQYPAGMNETPKSNN [ITC1] | 2.7 ± 0.1 | 2.8 ± 0.14 | 2.75 ± 0.087 | 3.01 ± 0.089
KFELGRQPANTKIGAKR [RPS8A] | 2.87 ± 0.06 | 3.1 ± 0.068 | 2.91 ± 0.11 | 3.18 ± 0.055
KVTCSSNSSSSPPIIDL [MED1] | 2.53 ± 0.044 | 2.76 ± 0.044 | 2.87 ± 0.032 | 2.74 ± 0.033
ELEKKYHGNECEINYYE [SRB8] | 3.04 ± 0.11 | 3.19 ± 0.086 | 3.26 ± 0.064 | 3.17 ± 0.066
IHPIPSVTVSQGNYVTE [YMR129W/POM152] | 2.21 ± 0.055 | 2.6 ± 0.066 | 2.58 ± 0.073 | 2.43 ± 0.043
FVIPILIKMSRSPPRPP [PRP28] | 2.04 ± 0.069 | 1.93 ± 0.065 | 2.01 ± 0.088 | 2.14 ± 0.073
IQDTLRTGSQSPPSSSQ [MED7] | 2.81 ± 0.044 | 2.91 ± 0.05 | 2.77 ± 0.043 | 2.89 ± 0.032
ANNASQITPTVPHSHPS [SNF12] | 2.77 ± 0.053 | 3 ± 0.064 | 2.82 ± 0.052 | 2.9 ± 0.052
SCQGNVIYRNSLYKVSF [YMR129W/POM152] | 2.54 ± 0.064 | 2.76 ± 0.068 | 2.56 ± 0.064 | 2.71 ± 0.094
MKTNVHTQANEPNSAKK [RGR1] | 3.02 ± 0.11 | 3.14 ± 0.089 | 3.06 ± 0.086 | 3.24 ± 0.11
QPIFVAHTAGRYANKRF [RPS5] | 1.55 ± 0.076 | 2.03 ± 0.072 | 1.61 ± 0.12 | 1.78 ± 0.069
RAYLSHSNRCIVFSKKE [CSN12] | 1.41 ± 0.075 | 1.56 ± 0.062 | 1.13 ± 0.15 | 1.15 ± 0.036

Sequence | protein stability index (doa10∆) | protein stability index (pdr5∆) | protein stability index (san1∆) | protein stability index (ubr1∆)
SRLCTPIPVQGEIEIKP [RPN13] | 2.42 ± 0.078 | 2.58 ± 0.067 | 1.7 ± 0.26 | 2.66 ± 0.1
LGTTEGDIKVLDSNFNL [RPN14] | 3.02 ± 0.12 | 3.11 ± 0.098 | 3.03 ± 0.078 | 3.26 ± 0.081
RHQQLLRSRLQQQQQQQ [SNF5] | 2.47 ± 0.078 | 2.54 ± 0.078 | 2.4 ± 0.12 | 2.67 ± 0.072
ECPGHFGHIDLAKPVFH [RPO21] | 2.69 ± 0.064 | 2.88 ± 0.06 | 2.74 ± 0.048 | 2.92 ± 0.052
KIIALQPNEISFKYLSN [RGR1] | 2.43 ± 0.12 | 2.38 ± 0.12 | – | 2.48 ± 0.098
WRFLQILRNGIDYLQRN [POP1] | 3.05 ± 0.059 | 2.82 ± 0.054 | 2.97 ± 0.052 | 2.72 ± 0.048
SFFVSVRKAITVLFFIG [FAS1] | 1.48 ± 0.087 | 1.34 ± 0.11 | – | 1.09 ± 0.041
MSFSSLYKTFFKRNAVF [QCR9] | 1.67 ± 0.066 | 1.33 ± 0.053 | 1.34 ± 0.091 | 1.32 ± 0.048
GYALRDVQARRQFVSNV [RPP1] | – | 1.99 ± 0.16 | – | –
LRPRKDSKDGTTLNIKV [SMB1] | – | – | 3.18 ± 0.12 | –
VNDFSDITSDQLLQRLN [SMC3] | 2.56 ± 0.055 | 2.24 ± 0.053 | 2.41 ± 0.083 | 2.6 ± 0.04
AGVPRQAINLGQVVLTP [RPL14A] | 2.09 ± 0.15 | 2.64 ± 0.13 | 1.58 ± 0.23 | 2.04 ± 0.21
AVHNGDRKHVAALRTVK [RPL9B] | 2.09 ± 0.064 | 2.23 ± 0.076 | 2.36 ± 0.061 | 2.71 ± 0.049
FRETTHSKRELDSGDDQ [BRR2] | 3.31 ± 0.12 | 3.02 ± 0.12 | 2.51 ± 0.088 | 2.78 ± 0.16
KALDELKPEIEKLTSKS [LRP1] | 2.86 ± 0.089 | 2.93 ± 0.077 | 2.93 ± 0.068 | 2.74 ± 0.066
MPNSSLQPFYSQPTAAG [DSN1] | 2.33 ± 0.076 | 2.71 ± 0.067 | 2.44 ± 0.056 | 2.78 ± 0.064
NPLWNAIIVAGVQSNGD [PRE4] | 1.25 ± 0.054 | 1.37 ± 0.044 | 1.53 ± 0.075 | 1.89 ± 0.04
KKTCSSCGYPSAKTRSH [RPL37B] | 2.74 ± 0.066 | 2.51 ± 0.044 | 2.63 ± 0.084 | 1.99 ± 0.04
YLHIRDKILQLNDRFQT [PGD1] | 2.62 ± 0.056 | 2.02 ± 0.064 | 2.38 ± 0.053 | 2.27 ± 0.038
VIEMKRCFENLQNKSFK [UBP6] | 3.33 ± 0.15 | 3.28 ± 0.2 | 3.1 ± 0.16 | 3.13 ± 0.1
KPTREPTPSVKTEPVGT [RPC53] | 3.15 ± 0.22 | 3.06 ± 0.26 | 2.95 ± 0.19 | 3.02 ± 0.21
LKTNFETEWNLQTLAAD [RPB11] | 2.79 ± 0.13 | 2.91 ± 0.11 | 2.53 ± 0.079 | 2.67 ± 0.1
VEENRVRYTTSVMPPNE [DLS1] | 2.62 ± 0.055 | 2.79 ± 0.051 | 2.85 ± 0.048 | 2.86 ± 0.055
KRNGSTLEQKVNLENPI [FAS1] | 2.2 ± 0.098 | 2.37 ± 0.12 | 2.21 ± 0.11 | 3.09 ± 0.089
VRRRFARGMTSKPAGFM [RPS15] | 2.9 ± 0.071 | 2.89 ± 0.077 | 2.94 ± 0.1 | 3.07 ± 0.075
VTGGKKALVLFVPVPAL [RPS7B] | 1.58 ± 0.061 | 2.03 ± 0.1 | 2.14 ± 0.11 | 1.52 ± 0.054
NELLDLTESQTETYISD [RPN5] | 3.17 ± 0.073 | 3.35 ± 0.069 | 3.12 ± 0.046 | 3.21 ± 0.069
